# Assay results taken from PMC11379823.
# T1: human orexin receptor 2 (human) (UniProt O43614)
# T1 sequence: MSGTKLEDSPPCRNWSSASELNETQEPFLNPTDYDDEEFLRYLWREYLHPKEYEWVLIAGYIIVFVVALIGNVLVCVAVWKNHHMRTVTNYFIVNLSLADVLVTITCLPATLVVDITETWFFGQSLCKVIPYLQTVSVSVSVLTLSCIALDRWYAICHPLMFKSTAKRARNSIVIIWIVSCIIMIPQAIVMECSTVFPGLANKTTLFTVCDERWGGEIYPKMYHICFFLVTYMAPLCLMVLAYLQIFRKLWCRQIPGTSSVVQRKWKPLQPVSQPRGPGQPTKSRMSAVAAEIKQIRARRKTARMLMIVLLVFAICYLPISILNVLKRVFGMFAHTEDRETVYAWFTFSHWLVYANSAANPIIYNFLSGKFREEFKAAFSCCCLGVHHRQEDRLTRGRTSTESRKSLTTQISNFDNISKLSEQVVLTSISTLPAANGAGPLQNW
# Biological target: T1, human orexin receptor 2 (human)
"intracellular accumulation of IP1 in hOX2R/CHO-EA cells, EC50 [nM]","intracellular phosphorylation of CREB (Ser133) in hOX2R/CHO-EA cells, EC50 [nM]","β-arrestin recruitment in hOX2R/CHO-EA cells (PathHunter), EC50 [nM]",Molecule
3.2,4.7,4,orexin-B (from UniProt O43612 70-97) (peptide)
0.84,1.8,3,QPLPDCCRQKTCSCRLYELLHGAGNHAAGILTL [orexin-A]
